Measurements: the supplement of paper PMC10899765

Assays:
Conditions in all cases: 20 nM; 72 h
MCF10A [1] = assay: nucleolar rRNA biogenesis percent inhibition (5-EU; siNT 0%, siPOLR1A 100%); higher = stronger inhibition of nucleolar rRNA biogenesis
Procedure: (§1)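 Primary screen hits (microRNA mimics) were re-picked and rescreened for nucleolar number in MCF10A cells (hitpick validation; percent effect relative to the siNT and siNOL11/siKIF11 controls). A secondary screen measured nucleolar rRNA biogenesis inhibition: after 72 h of transfection at 20 nM, cells were labelled 1 h with 1 mM 5-EU and nucleolar 5-EU signal was quantified, normalised to siNT (0%) and siPOLR1A (100%). Means are over n=5 (MCF10A) or n=2 (RPE-1, HeLa) biological replicates.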

MCF10A [2] = assay: one-nucleolus phenotype percent effect, hitpick validation (relative to siNT 0% and siNOL11 100%); higher = more cells with one nucleolus
Procedure: as §1

MCF10A [3] = assay: 5+ nucleoli phenotype percent effect, hitpick validation (relative to siNT 0% and siKIF11 100%); higher = more cells with five or more nucleoli
Procedure: as §1

MCF10A [4] = assay: percent viability (nuclei count relative to siNT); higher = more viable cells
Procedure: (§2)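 After 72 h, cells were fixed and stained with Hoechst and anti-fibrillarin, and nucleoli per nucleus were counted with CellProfiler. Values are plate-adjusted percent effect for the one-nucleolus and 5+ nucleoli phenotypes, normalised to siNT (0%) and to the positive controls siNOL11 or siKIF11 (100%), as the mean of biological triplicates. Percent viability is the nuclei count relative to siNT.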

MCF10A [5] = assay: 5+ nucleoli phenotype percent effect (relative to siNT 0% and siKIF11 100%); higher = more cells with five or more nucleoli
Procedure: as §2

MCF10A [6] = assay: one-nucleolus phenotype percent effect (relative to siNT 0% and siNOL11 100%); higher = more cells with one nucleolus (ribosome biogenesis inhibition)
Procedure: as §2

Row | Sequence | nucleolar rRNA biogenesis percent inhibition (MCF10A [1]) [%] | one-nucleolus phenotype percent effect (MCF10A [2]) [%] | 5+ nucleoli phenotype percent effect (MCF10A [3]) [%] | percent viability (MCF10A [4]) [%] | 5+ nucleoli phenotype percent effect (MCF10A [5]) [%] | one-nucleolus phenotype percent effect (MCF10A [6]) [%]
1 | UAGGAGCUCAACAGAUGCCUGUU [hsa-miR-3139] | 5.86 | 181 | -8.78 | 18.8 | -23.5 | 84.1
2 | UCAUAGCCCUGUACAAUGCUGCU [hsa-miR-103b] | 47.6 | 144 | -15 | 46.2 | -32.5 | 72.9
3 | CCGUCGCCGCCACCCGAGCCG [hsa-miR-1181] | 86.9 | -55.6 | 40.2 | 128 | 96.7 | -33.1
4 | CUGGCGGAGCCCAUUCCAUGCCA [hsa-miR-4730] | 91.1 | 230 | -12.7 | 18.2 | -43.2 | 118
5 | GAGGGCGGGUGGAGGAGGA [hsa-miR-3141] | 51.1 | 129 | -4.23 | 20.1 | -29.5 | 72.7
6 | GGCUGGGUGCUCUUGUGCAGU [hsa-miR-5589-5p] | 70 | 92.2 | 21.5 | 17.4 | -4.52 | 71
7 | CACCAGGGCAGAGCAGGGCUGA [hsa-miR-6753-5p] | 91.2 | 141 | -17.4 | 15 | -40 | 68.1
8 | UGGUCUGCAAAGAGAUGACUGU [hsa-miR-4527] | 67.3 | 151 | -1.79 | 12.3 | -39.4 | 104
9 | AGAAAGGGUGGCAAUACCUCUU [hsa-miR-5681a] | 76.4 | 165 | -15.4 | 8.23 | -33.1 | 114
10 | AAAAGGCAUUGUGGUUUUUG [hsa-miR-548an] | 65.7 | 194 | -8.86 | 11.6 | -52.6 | 137
11 | AGGAGCUAUCCACUCCAGGUGUCC [hsa-miR-6500-5p] | 61.3 | 153 | 5.46 | 19.2 | -33 | 70.9
12 | AAAAGGCGGGAGAAGCCCCA [hsa-miR-4484] | 69.6 | 199 | -14.7 | 12 | -51.6 | 92.8
13 | UUGCACUUGUCUCAGUGA [hsa-miR-4325] | 104 | 84.2 | 3.45 | 15.7 | -30.4 | 70.8
14 | UGAAUGGUAAAGCGAUGUCACA [hsa-miR-4790-3p] | 105 | 78.8 | -2.28 | 32.2 | -42.5 | 71.6
15 | GAGGGCAUGCGCACUUUGUCC [hsa-miR-4761-3p] | 76 | 86.5 | 14.2 | 20 | -23.9 | 85.1
16 | UUUGCAGUAACAGGUGUGAGCA [hsa-miR-6516-5p] | 48.6 | 142 | -19.1 | 23.8 | -40.6 | 80.3
17 | AAGCAGCUGCCUCUGAGGC [hsa-miR-646] | 130 | 152 | -14.4 | 32.4 | -42.6 | 70.7
18 | ACAGAUUCGAUUCUAGGGGAAU [hsa-miR-10b-3p] | – | – | – | 53.5 | -9.13 | 15.6
19 | AUGUGAUUGACGGCUGACUCCA [hsa-miR-8070] | – | – | – | 23 | -27.8 | 26.5
20 | AAAAGUAAUCACUGUUUUUGCC [hsa-miR-548y] | – | – | – | 73.4 | 42.1 | -21.4
21 | UCCAGUACAGGUCUCUCAUUUC [hsa-miR-4712-5p] | – | – | – | 81.3 | -15.1 | 11
22 | UAUGUGGGAUGGUAAACCGCUU [hsa-miR-299-3p] | – | – | – | 45.6 | -20.9 | 13.9
23 | UGCGGCCGGUGCUCAACCUGC [hsa-miR-1199-3p] | – | – | – | 22.1 | -6.68 | 23.8
24 | UAGUAGACCGUAUAGCGUACG [hsa-miR-411-5p] | – | – | – | 69.2 | 15.2 | -6.18
25 | UUCACCACCUUCUCCACCCAGC [hsa-miR-197-3p] | – | – | – | 28.8 | -10 | 10.8

Row | Sequence | nucleolar rRNA biogenesis percent inhibition (MCF10A [1]) [%] | one-nucleolus phenotype percent effect (MCF10A [2]) [%] | 5+ nucleoli phenotype percent effect (MCF10A [3]) [%] | percent viability (MCF10A [4]) [%] | 5+ nucleoli phenotype percent effect (MCF10A [5]) [%] | one-nucleolus phenotype percent effect (MCF10A [6]) [%]
26 | ACUGGCAUUAGUGGGACUUUU [hsa-miR-5588-5p] | – | – | – | 46.1 | 33.4 | -3.93
27 | GCAGGACAGGCAGAAGUGGAU [hsa-miR-4436a] | – | – | – | 105 | 32.1 | -24.9
28 | ACAGGCACGACUGGUUUGGCA [hsa-miR-6715b-5p] | – | – | – | 14.8 | -27.8 | 54.7
29 | AGGAGAAGUAAAGUAGAA [hsa-miR-4434] | – | – | – | 74.7 | 49.4 | -15.7
30 | CGUCAACACUUGCUGGUUUCCU [hsa-miR-505-3p] | – | – | – | 33.8 | -7.84 | 22.4
31 | AAAACUGCAGUUACUUUUGC [hsa-miR-548av-3p] | – | – | – | 83.1 | 35.1 | -20.6
32 | AUGGUCUCCUGUUCUCUGCAG [hsa-miR-6843-3p] | – | – | – | 31.7 | 7.69 | 10.8
33 | CUCUAGAGGGAAGCGCUUUCUG [hsa-miR-519a-5p] | – | – | – | 56.5 | -2.96 | -15.1
34 | CACGCUCAUGCACACACCCACA [hsa-miR-574-3p] | – | – | – | 82.7 | -3.95 | -8.15
35 | UGUGUACACACGUGCCAGGCGCU [hsa-miR-3177-5p] | – | – | – | 131 | 61.9 | -22.2
36 | GUAGAGGAGAUGGCGCAGGG [hsa-miR-877-5p] | – | – | – | 54.7 | 10.3 | -6.88
37 | AUCCUAGUCACGGCACCA [hsa-miR-7975] | – | – | – | 43.7 | -29.1 | 12.9
38 | UGGGAGCUAAGCUAUGGGUAU [hsa-miR-5591-5p] | – | – | – | 13.9 | -6.94 | 13.6
39 | GAAGGCAGCAGUGCUCCCCUGU [hsa-miR-3714] | – | – | – | 9.1 | -29.2 | 19.5
40 | CAAAAACUGCAGUUACUUUUGU [hsa-miR-548am-3p] | – | – | – | 96 | 42.5 | -23.3
41 | CCUGACCCACCCCCUCCCGCAG [hsa-miR-4750-3p] | – | – | – | 95.7 | 40.4 | -19.1
42 | UUCCCUAUCUCACUCUCCUCAG [hsa-miR-6883-3p] | – | – | – | 58.5 | 20.1 | -14.4
43 | UGGAGUUAAGGGUUGCUUGGAGA [hsa-miR-4653-3p] | – | – | – | 12.9 | -39.9 | 47.6
44 | CCAGUCCUGUGCCUGCCGCCU [hsa-miR-1910] | – | – | – | 100 | 6.81 | 3.9
45 | GGCAGGUUCUCACCCUCUCUAGG [hsa-miR-657] | – | – | – | 44.7 | 15.8 | 4.3
46 | UCUGUGCUUCACCCCUACCCAG [hsa-miR-6737-3p] | – | – | – | 68.8 | -3.33 | 3.19
47 | AGCCAGGCUCUGAAGGGAAAGU [hsa-miR-4755-3p] | – | – | – | 59.3 | 3.33 | 7.85
48 | CAACCACCACUGUCUCUCCCCAG [hsa-miR-6776-3p] | – | – | – | 91.3 | 48.4 | -24.4
49 | GAAAGUACAGAUCGGAUGGGU [hsa-miR-8054] | – | – | – | 55.8 | 24.3 | -3.34
50 | CCCAGCAGGACGGGAGCG [hsa-miR-4530] | – | – | – | 111 | 43.3 | -26.2
